Patent publication US6413759

Columns and labels:
[1] = biological target: T1, SKC-2-C42 (SKC-2 with deletion of the last 42 residues, 373-414)
T1 chain: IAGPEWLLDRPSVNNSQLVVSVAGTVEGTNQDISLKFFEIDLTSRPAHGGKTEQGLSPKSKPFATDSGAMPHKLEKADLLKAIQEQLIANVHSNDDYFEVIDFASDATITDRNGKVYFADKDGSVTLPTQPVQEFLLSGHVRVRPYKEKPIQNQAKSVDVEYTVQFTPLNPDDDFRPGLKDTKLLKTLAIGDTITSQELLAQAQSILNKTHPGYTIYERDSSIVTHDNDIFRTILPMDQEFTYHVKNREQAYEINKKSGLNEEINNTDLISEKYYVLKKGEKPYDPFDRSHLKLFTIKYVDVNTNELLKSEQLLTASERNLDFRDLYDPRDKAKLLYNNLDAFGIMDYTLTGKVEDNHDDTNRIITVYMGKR

[2] = biological target: T2, SKC-2-N13 (SKC-2 with deletion of the first 13 N-terminal residues)
T2 chain: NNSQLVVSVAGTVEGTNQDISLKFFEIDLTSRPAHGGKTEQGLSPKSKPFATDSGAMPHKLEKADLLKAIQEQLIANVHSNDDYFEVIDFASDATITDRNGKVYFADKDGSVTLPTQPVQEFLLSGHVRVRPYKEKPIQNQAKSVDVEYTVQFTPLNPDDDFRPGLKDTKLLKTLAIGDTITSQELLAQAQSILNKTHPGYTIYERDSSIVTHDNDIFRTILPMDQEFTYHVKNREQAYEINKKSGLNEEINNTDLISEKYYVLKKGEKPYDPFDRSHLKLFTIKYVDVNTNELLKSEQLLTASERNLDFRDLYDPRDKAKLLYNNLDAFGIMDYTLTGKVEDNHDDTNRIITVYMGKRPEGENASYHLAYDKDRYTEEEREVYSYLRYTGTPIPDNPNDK

B1: human plasminogen (protein)
chain: EPLDDYVNTQGASLFSVTKKQLGAGSIEECAAKCEEDEEFTCRAFQYHSKEQQCVIMAENRKSSIIIRMRDVVLFEKKVYLSECKTGNGKNYRGTMSKTKNGITCQKWSSTSPHRPRFSPATHPSEGLEENYCRNPDNDPQGPWCYTTDPEKRYDYCDILECEEECMHCSGENYDGKISKTMSGLECQAWDSQSPHAHGYIPSKFPNKNLKKNYCRNPDRELRPWCFTTDPNKRWELCDIPRCTTPPPSSGPTYQCLKGTGENYRGNVAVTVSGHTCQHWSAQTPHTHNRTPENFPCKNLDENYCRNPDGKRAPWCHTTNSQVRWEYCKIPSCDSSPVSTEQLAPTAPPELTPVVQDCYHGDGQSYRGTSSTTTTGKKCQSWSSMTPHRHQKTPENYPNAGLTMNYCRNPDADKGPWCFTTDPSVRWEYCNLKKCSGTEASVVAPPPVVLLPDVETPSEEDCMFGNGKGYRGKRATTVTGTPCQDWAAQEPHRHSIFTPETNPRAGLEKNYCRNPDGDVGGPWCYTTNPRKLYDYCDVPQCAAPSFDCGKPQVEPKKCPGRVVGGCVAHPHSWPWQVSLRTRFGMHFCGGTLISPEWVLTAAHCLEKSPRPSSYKVILGAHQEVNLEPHVQEIEVSRLFLEPTRKDIALLKLSSPAVITDKVIPACLPSPNYVVADRTECFITGWGETQGTFGAGLLKEAQLPVIENKVCNRYEFLNGRVQSTELCAGHLAGGTDSCQGDSGGPLVCFEKDKYILQGVTSWGLGCARPNKPGVYVRVSRFVTWIEGVMRNN
- specific activity (agarose-fibrin plates, chromogenic substrate, clot lysis) [1]: 50000-100000 IU/mg
- specific activity (agarose-fibrin plates, chromogenic substrate, clot lysis) [2]: 2000-4000 lU/mg
